In the experiment the target is T1, HOOK3-SNAPf labeled with Alexa-647 (human) (UniProt Q86VS8).
T1 sequence (chain, Alexa-647 on the SNAP tag): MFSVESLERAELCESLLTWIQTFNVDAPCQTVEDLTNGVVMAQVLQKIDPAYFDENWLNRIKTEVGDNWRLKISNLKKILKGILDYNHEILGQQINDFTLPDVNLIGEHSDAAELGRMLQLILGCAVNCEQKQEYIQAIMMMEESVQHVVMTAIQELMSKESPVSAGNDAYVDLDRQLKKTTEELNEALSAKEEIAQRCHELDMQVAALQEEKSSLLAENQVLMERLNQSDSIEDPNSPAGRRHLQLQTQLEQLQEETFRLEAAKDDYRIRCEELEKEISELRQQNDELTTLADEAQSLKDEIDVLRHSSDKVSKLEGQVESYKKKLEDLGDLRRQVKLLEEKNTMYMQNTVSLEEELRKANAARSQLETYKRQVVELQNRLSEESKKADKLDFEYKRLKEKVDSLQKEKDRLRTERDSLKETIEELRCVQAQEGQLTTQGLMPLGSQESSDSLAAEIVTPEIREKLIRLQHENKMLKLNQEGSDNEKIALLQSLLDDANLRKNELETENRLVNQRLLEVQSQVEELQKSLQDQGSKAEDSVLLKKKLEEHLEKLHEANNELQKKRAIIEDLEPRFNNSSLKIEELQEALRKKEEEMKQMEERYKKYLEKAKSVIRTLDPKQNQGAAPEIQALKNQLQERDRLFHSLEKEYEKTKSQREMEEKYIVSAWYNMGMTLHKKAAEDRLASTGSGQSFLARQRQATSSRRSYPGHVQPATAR

B1: GST–KIF1C^642–922–GFP (domain or fragment)
chain: EMEKRLQDLENQYRKEKEEADLLLEQQRLYADSDSGDDSDKRSCEESWRLISSLREQLPPTTVQTIVKRCGLPSSGKRRAPRRVYQIPQRRRLQGKDPRWATMADLKMQAVKEICYEVALADFRHGRAEIEALAALKMRELCRTYGKPDGPGDAWRAVARDVWDTVGEEEGGGAGSGGGSEEGARGAEVEDLRAHIDKLTGILQEVKLQNSSKDRELQALRDRMLRMERVIPLAQDHEDENEEGGEVPWAPPEGSEAAEEAAPSDRMPSARPPSPPLSSWE
For B1, the TMR–dynein landing rate on microtubules (TIRF), dynein–dynactin–HOOK3 with against without GST–KIF1C stalk–GFP is 2.6 fold.

Values taken from PMC11996680.
